Reference: publication PMC7599842, “PARP1 Deficiency Reduces Tumour Growth by Decreasing E2F1 Hyperactivation: A Novel Mechanism in the Treatment of Cancer” (Cancers, 2020)

Molecular target: T1, PARP1 (poly (ADP-ribose) polymerase-1) (UniProt P09874 1-1014)
T1 construct: PARP1, bought from Trevigen; Commercial protein; catalogue number not given; source: bought: Trevigen
Assay: BLI; GST-E2F1 immobilised on GST biosensors; serial dilutions of PARP1; FortéBio BLItz instrument, global fitting
Details: both partners purified

T1 sequence (P09874 whole entry): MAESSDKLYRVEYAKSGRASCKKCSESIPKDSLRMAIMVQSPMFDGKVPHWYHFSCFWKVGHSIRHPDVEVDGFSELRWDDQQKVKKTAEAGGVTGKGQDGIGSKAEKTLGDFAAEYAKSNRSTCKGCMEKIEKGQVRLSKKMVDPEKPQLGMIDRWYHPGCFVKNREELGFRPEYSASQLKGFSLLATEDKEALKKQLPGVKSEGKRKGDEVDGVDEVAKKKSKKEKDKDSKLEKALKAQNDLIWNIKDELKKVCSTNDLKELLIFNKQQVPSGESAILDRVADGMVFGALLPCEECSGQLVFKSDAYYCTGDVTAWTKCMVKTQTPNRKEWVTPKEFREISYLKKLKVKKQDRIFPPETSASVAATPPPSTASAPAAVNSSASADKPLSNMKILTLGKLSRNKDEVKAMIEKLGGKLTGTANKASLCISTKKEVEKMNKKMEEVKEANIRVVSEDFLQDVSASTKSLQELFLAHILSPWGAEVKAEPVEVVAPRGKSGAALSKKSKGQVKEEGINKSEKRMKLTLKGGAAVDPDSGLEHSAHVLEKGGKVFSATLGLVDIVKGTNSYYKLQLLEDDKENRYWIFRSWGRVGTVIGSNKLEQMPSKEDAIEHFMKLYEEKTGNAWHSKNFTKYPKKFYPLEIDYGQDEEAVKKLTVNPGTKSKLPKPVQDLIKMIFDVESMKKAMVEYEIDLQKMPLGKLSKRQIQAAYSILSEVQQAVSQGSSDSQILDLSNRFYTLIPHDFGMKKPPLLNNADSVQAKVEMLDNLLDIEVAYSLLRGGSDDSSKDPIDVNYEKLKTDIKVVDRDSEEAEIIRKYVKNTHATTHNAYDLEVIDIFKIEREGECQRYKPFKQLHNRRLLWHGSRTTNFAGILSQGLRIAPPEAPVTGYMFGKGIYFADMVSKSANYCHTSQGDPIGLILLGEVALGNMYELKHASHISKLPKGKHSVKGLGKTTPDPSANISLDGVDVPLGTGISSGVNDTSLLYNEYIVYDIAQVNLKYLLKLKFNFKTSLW

B1: Recombinant GST-hE2F1 (natural protein)
chain: not shown
notes: E2F1 transcription factor, human (hE2F1); also called GST-E2F1; source: recombinant, purified as described elsewhere [27]
- Kd: 22 µM
